These results are taken from the supplement of paper PMC9112550, “Optimization of the antimicrobial peptide Bac7 by deep mutational scanning” (BMC Biology, 2022).
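Note: peptides expressed intracellularly from a pBAD plasmid library in pooled LB shake-flask culture, induced with 0.3% L-arabinose, DNA abundance read by NGS, three biological replicates, DESeq2 with apeglm shrinkage.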

The data set has as its system Escherichia coli TOP10. Kind of data set: shrunken log2 fold change of peptide-encoding DNA abundance (4.5 h post-induction vs induction); higher = less antimicrobial activity (less host growth inhibition). As to conditions: time post-induction: 4.5 h; library: site-saturation at positions 5, 18, 19, 20.
As to RRIRQRPPRLPRPRPRPPSRPRP, the “shrunken log2 fold change” value was 0.138.
Regarding RRIRTRPPRLPRPRPRPAYNPRP, the “shrunken log2 fold change” value is -0.355.
Take RRIRARPPRLPRPRPRPGNKPRP: the “shrunken log2 fold change” value was -0.186.
For the sequence RRIRLRPPRLPRPRPRPYYRPRP, the “shrunken log2 fold change” value is -0.043.
The figure for RRIRKRPPRLPRPRPRPVHLPRP is -0.0295.
Regarding RRIRVRPPRLPRPRPRPISNPRP, the “shrunken log2 fold change” value was -0.512.
Turning to RRIRERPPRLPRPRPRPDVVPRP, the “shrunken log2 fold change” value is 0.015.
In the case of RRIRYRPPRLPRPRPRPVVMPRP, the “shrunken log2 fold change” value is 0.00213.
The value for RRIRPRPPRLPRPRPRPNVWPRP was 0.183.
For the sequence RRIRKRPPRLPRPRPRPAQFPRP, the “shrunken log2 fold change” value was found to be 0.258.
As to RRIRARPPRLPRPRPRPYAPPRP, the “shrunken log2 fold change” value amounted to 0.162.
On to RRIRQRPPRLPRPRPRPDIEPRP, for which the “shrunken log2 fold change” value is -0.32.
Consider RRIRGRPPRLPRPRPRPCGNPRP, for which the “shrunken log2 fold change” value stood at 0.255.
RRIRQRPPRLPRPRPRPTMHPRP: the “shrunken log2 fold change” value is -0.0393.
Consider RRIRLRPPRLPRPRPRPDMRPRP, for which the “shrunken log2 fold change” value was -0.0825.
With RRIRARPPRLPRPRPRPNYMPRP, the “shrunken log2 fold change” value was -0.2.
Regarding RRIRHRPPRLPRPRPRPEKRPRP, the “shrunken log2 fold change” value is -0.01.
As for RRIRLRPPRLPRPRPRPNNPPRP, the “shrunken log2 fold change” value was -0.157.
For RRIRPRPPRLPRPRPRPPQEPRP, the “shrunken log2 fold change” value was found to be 0.727.
Turning to RRIRMRPPRLPRPRPRPGPMPRP, the “shrunken log2 fold change” value worked out at 1.05.
For the sequence RRIRFRPPRLPRPRPRPDDYPRP, the “shrunken log2 fold change” value was -0.0193.
For RRIRRRPPRLPRPRPRPIPHPRP, the “shrunken log2 fold change” value was 0.822.
The value for RRIRMRPPRLPRPRPRPWPMPRP was 0.304; that for RRIRIRPPRLPRPRPRPNMLPRP was -1.18.
Consider RRIRDRPPRLPRPRPRPSWLPRP, for which the “shrunken log2 fold change” value worked out at 0.339.
Turning to RRIRHRPPRLPRPRPRPMLQPRP, the “shrunken log2 fold change” value was -0.0377.
Regarding RRIRSRPPRLPRPRPRPYFTPRP, the “shrunken log2 fold change” value is 1.09.
Consider RRIRGRPPRLPRPRPRPFPTPRP, for which the “shrunken log2 fold change” value was 0.63.
Regarding RRIRERPPRLPRPRPRPLFGPRP, the “shrunken log2 fold change” value is -0.0794.
With RRIRERPPRLPRPRPRPNDQPRP, the “shrunken log2 fold change” value came out at 0.0572.
Regarding RRIRDRPPRLPRPRPRPEMTPRP, the “shrunken log2 fold change” value stood at 0.679.
On to RRIRRRPPRLPRPRPRPTLVPRP, for which the “shrunken log2 fold change” value is 0.315.
For the sequence RRIRARPPRLPRPRPRPAAMPRP, the “shrunken log2 fold change” value was determined as 0.856.
With RRIRLRPPRLPRPRPRPFVPPRP, the “shrunken log2 fold change” value is -0.162.
The figure for RRIRFRPPRLPRPRPRPIHTPRP is 0.0523.
RRIRFRPPRLPRPRPRPVLEPRP: the “shrunken log2 fold change” value was 0.00555.
For the sequence RRIRSRPPRLPRPRPRPTRLPRP, the “shrunken log2 fold change” value was 0.699.
On to RRIRDRPPRLPRPRPRPKHKPRP, for which the “shrunken log2 fold change” value is -0.173.
On to RRIRQRPPRLPRPRPRPDCMPRP, for which the “shrunken log2 fold change” value amounted to 0.00805.
The figure for RRIRIRPPRLPRPRPRPFADPRP is -0.26; for RRIRCRPPRLPRPRPRPRCDPRP it is -0.047.
Take RRIRLRPPRLPRPRPRPYVCPRP: the “shrunken log2 fold change” value is -0.0658.
With RRIRNRPPRLPRPRPRPNKFPRP, the “shrunken log2 fold change” value was -0.597.
Turning to RRIRLRPPRLPRPRPRPVINPRP, the “shrunken log2 fold change” value is -0.686.
On to RRIRKRPPRLPRPRPRPQYFPRP, for which the “shrunken log2 fold change” value is -0.0337.
As to RRIRQRPPRLPRPRPRPAFNPRP, the “shrunken log2 fold change” value came to 0.18.
As to RRIRIRPPRLPRPRPRPEMWPRP, the “shrunken log2 fold change” value amounted to 0.0226.
As for RRIRYRPPRLPRPRPRPKQGPRP, the “shrunken log2 fold change” value amounted to 0.0737.
With RRIRQRPPRLPRPRPRPGPVPRP, the “shrunken log2 fold change” value was -0.0186.
Turning to RRIRQRPPRLPRPRPRPGDRPRP, the “shrunken log2 fold change” value was determined as 0.132.
For RRIRMRPPRLPRPRPRPKIPPRP, the “shrunken log2 fold change” value was 0.365.
In the case of RRIRGRPPRLPRPRPRPPYEPRP, the “shrunken log2 fold change” value was determined as 0.0264.
For the sequence RRIRCRPPRLPRPRPRPNALPRP, the “shrunken log2 fold change” value came to 0.0653.
Consider RRIRGRPPRLPRPRPRPAFKPRP, for which the “shrunken log2 fold change” value is 0.177.
Consider RRIRMRPPRLPRPRPRPCYHPRP, for which the “shrunken log2 fold change” value is -0.265.
Consider RRIRARPPRLPRPRPRPQTPPRP, for which the “shrunken log2 fold change” value was 0.456.
RRIRKRPPRLPRPRPRPKPFPRP: the “shrunken log2 fold change” value came out at 0.611.
In the case of RRIRLRPPRLPRPRPRPANNPRP, the “shrunken log2 fold change” value is -0.116.
Regarding RRIRKRPPRLPRPRPRPSMPPRP, the “shrunken log2 fold change” value turned out to be 0.0159.
Take RRIRTRPPRLPRPRPRPRVAPRP: the “shrunken log2 fold change” value is 0.258.
The figure for RRIRKRPPRLPRPRPRPWMFPRP is -0.000428; for RRIRSRPPRLPRPRPRPLDWPRP it is 0.262.
The figure for RRIRPRPPRLPRPRPRPTNCPRP is -0.169; for RRIRIRPPRLPRPRPRPPHHPRP it is -0.242.
In the case of RRIRLRPPRLPRPRPRPGGDPRP, the “shrunken log2 fold change” value was 0.152.
As to RRIRMRPPRLPRPRPRPDYFPRP, the “shrunken log2 fold change” value is -0.121.
Take RRIRFRPPRLPRPRPRPPKWPRP: the “shrunken log2 fold change” value is 0.286.
The value for RRIRFRPPRLPRPRPRPNTFPRP was -0.559; that for RRIRIRPPRLPRPRPRPRDYPRP was -0.14; that for RRIRTRPPRLPRPRPRPFWFPRP was 0.526.
The figure for RRIRYRPPRLPRPRPRPAQHPRP is -0.515.
With RRIRKRPPRLPRPRPRPLEFPRP, the “shrunken log2 fold change” value worked out at 0.124.
The value for RRIRSRPPRLPRPRPRPVFEPRP was -0.0222; that for RRIRARPPRLPRPRPRPKWMPRP was 0.191; that for RRIRPRPPRLPRPRPRPNRNPRP was -0.352.
With RRIRMRPPRLPRPRPRPQAHPRP, the “shrunken log2 fold change” value was 0.0821.
Consider RRIRPRPPRLPRPRPRPNNIPRP, for which the “shrunken log2 fold change” value was -0.848.
RRIRVRPPRLPRPRPRPISKPRP: the “shrunken log2 fold change” value was -0.184.
Turning to RRIRHRPPRLPRPRPRPDGPPRP, the “shrunken log2 fold change” value is -0.0182.
With RRIRIRPPRLPRPRPRPDNIPRP, the “shrunken log2 fold change” value is -0.116.
Take RRIRARPPRLPRPRPRPWKEPRP: the “shrunken log2 fold change” value came out at 0.00952.
The value for RRIRERPPRLPRPRPRPSAFPRP was -0.089.
As to RRIRGRPPRLPRPRPRPLSFPRP, the “shrunken log2 fold change” value was determined as 0.121.
Turning to RRIRARPPRLPRPRPRPFGDPRP, the “shrunken log2 fold change” value is 0.483.
On to RRIRLRPPRLPRPRPRPFWSPRP, for which the “shrunken log2 fold change” value is -0.162.
Regarding RRIRCRPPRLPRPRPRPFRHPRP, the “shrunken log2 fold change” value was -0.143.
With RRIRGRPPRLPRPRPRPCSLPRP, the “shrunken log2 fold change” value was 0.237.
Take RRIRSRPPRLPRPRPRPDKAPRP: the “shrunken log2 fold change” value is -0.111.
For RRIRQRPPRLPRPRPRPYRNPRP, the “shrunken log2 fold change” value was -0.0521.
With RRIRDRPPRLPRPRPRPAFLPRP, the “shrunken log2 fold change” value was determined as 0.000425.
The value for RRIRSRPPRLPRPRPRPMDWPRP was -0.0477; that for RRIRPRPPRLPRPRPRPGEAPRP was 0.426.
Take RRIRGRPPRLPRPRPRPRRFPRP: the “shrunken log2 fold change” value came out at 0.402.
The figure for RRIRHRPPRLPRPRPRPTPPPRP is 0.391; for RRIRIRPPRLPRPRPRPFPRPRP it is -0.123.
The value for RRIRKRPPRLPRPRPRPPCKPRP was -0.242; that for RRIRDRPPRLPRPRPRPTCTPRP was 0.53; that for RRIRNRPPRLPRPRPRPTQWPRP was 0.425.
As for RRIRRRPPRLPRPRPRPEWTPRP, the “shrunken log2 fold change” value amounted to 0.0215.
For the sequence RRIRWRPPRLPRPRPRPEGHPRP, the “shrunken log2 fold change” value came to 0.792.
The figure for RRIRGRPPRLPRPRPRPQQKPRP is 0.206.
In the case of RRIRRRPPRLPRPRPRPTISPRP, the “shrunken log2 fold change” value was -0.28.
Regarding RRIRDRPPRLPRPRPRPSQTPRP, the “shrunken log2 fold change” value was -0.244.
As for RRIRRRPPRLPRPRPRPRNSPRP, the “shrunken log2 fold change” value was -0.0834.
Take RRIRVRPPRLPRPRPRPHEIPRP: the “shrunken log2 fold change” value was 0.026.
The figure for RRIRKRPPRLPRPRPRPERCPRP is 0.559; for RRIRPRPPRLPRPRPRPRTTPRP it is 0.332; for RRIRLRPPRLPRPRPRPLHQPRP it is -0.297.
As for RRIRNRPPRLPRPRPRPDYWPRP, the “shrunken log2 fold change” value is -0.21.
With RRIRGRPPRLPRPRPRPMRGPRP, the “shrunken log2 fold change” value was found to be 1.09.
The figure for RRIRFRPPRLPRPRPRPQWTPRP is -0.075.
The figure for RRIRQRPPRLPRPRPRPAIWPRP is -0.143; for RRIRPRPPRLPRPRPRPDQKPRP it is -0.0552; for RRIRSRPPRLPRPRPRPNNGPRP it is -0.035.
As for RRIRIRPPRLPRPRPRPRTGPRP, the “shrunken log2 fold change” value is -0.0659.
For RRIRIRPPRLPRPRPRPTTLPRP, the “shrunken log2 fold change” value is -0.506.
As for RRIRYRPPRLPRPRPRPLWMPRP, the “shrunken log2 fold change” value is -0.63.
In the case of RRIRRRPPRLPRPRPRPIKWPRP, the “shrunken log2 fold change” value worked out at 0.0148.
In the case of RRIRERPPRLPRPRPRPFEWPRP, the “shrunken log2 fold change” value was -0.132.
The figure for RRIRVRPPRLPRPRPRPSDPPRP is -0.179; for RRIRDRPPRLPRPRPRPYNQPRP it is -0.135; for RRIRTRPPRLPRPRPRPELFPRP it is 0.039.
Consider RRIRVRPPRLPRPRPRPQGIPRP, for which the “shrunken log2 fold change” value worked out at 0.0752.
As for RRIRHRPPRLPRPRPRPLHYPRP, the “shrunken log2 fold change” value is -0.284.
The value for RRIRVRPPRLPRPRPRPHWPPRP was -0.122.
